# Reference: patent publication US9228015B2, “Nogo receptor antagonists and methods of increasing neurite outgrowth” (Biogen Idec MA Inc., priority 2006, dated 2016)
# “Also recorded” adds a separate entry of the source.
# T1: Nogo66 binding to sNogoR344-Fc (rat Nogo receptor-1 residues 26-344) (Rattus norvegicus, UniProt Q99M75, A303T/C287S/C43R/E284G/T53A)
# T1 construct: amino acid residues 26-344 of rat Nogo receptor-1; made in house; CHO (DG44) is described only for sNogoR310-Fc
# T1 sequence (Q99M75 26-344 C43R/T53A/E284G/C287S/A303T): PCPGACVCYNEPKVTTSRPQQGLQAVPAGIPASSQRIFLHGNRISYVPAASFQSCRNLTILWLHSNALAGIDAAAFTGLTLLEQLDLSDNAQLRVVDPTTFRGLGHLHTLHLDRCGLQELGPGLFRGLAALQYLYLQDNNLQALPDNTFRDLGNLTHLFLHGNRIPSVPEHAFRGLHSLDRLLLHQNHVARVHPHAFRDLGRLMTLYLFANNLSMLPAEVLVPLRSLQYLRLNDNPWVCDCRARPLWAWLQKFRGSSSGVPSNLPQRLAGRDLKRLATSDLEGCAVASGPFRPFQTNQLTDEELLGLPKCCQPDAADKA
# T2: MAG + sNogoR344-Fc (Rattus norvegicus, UniProt Q99M75, A303T/C287S/C43R/E284G/T53A)
# T2 construct: amino acid residues 26-344 of rat Nogo receptor-1; made in house; CHO (DG44) is described only for sNogoR310-Fc
# T2 sequence (Q99M75 26-344 C43R/T53A/E284G/C287S/A303T): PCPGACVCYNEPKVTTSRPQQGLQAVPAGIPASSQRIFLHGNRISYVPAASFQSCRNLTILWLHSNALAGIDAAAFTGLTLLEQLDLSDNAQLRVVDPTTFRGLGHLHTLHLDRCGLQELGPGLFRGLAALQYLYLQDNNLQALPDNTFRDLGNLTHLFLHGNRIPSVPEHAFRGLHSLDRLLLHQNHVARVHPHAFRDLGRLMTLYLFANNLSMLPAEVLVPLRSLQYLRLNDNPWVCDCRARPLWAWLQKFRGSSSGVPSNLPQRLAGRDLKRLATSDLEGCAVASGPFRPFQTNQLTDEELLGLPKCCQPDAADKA
# T3: Nogo66 + sNogoR344-Fc (Rattus norvegicus, UniProt Q99M75, A303T/C287S/C43R/E284G/T53A)
# T3 construct: amino acid residues 26-344 of rat Nogo receptor-1; made in house
# T3 sequence (Q99M75 26-344 C43R/T53A/E284G/C287S/A303T): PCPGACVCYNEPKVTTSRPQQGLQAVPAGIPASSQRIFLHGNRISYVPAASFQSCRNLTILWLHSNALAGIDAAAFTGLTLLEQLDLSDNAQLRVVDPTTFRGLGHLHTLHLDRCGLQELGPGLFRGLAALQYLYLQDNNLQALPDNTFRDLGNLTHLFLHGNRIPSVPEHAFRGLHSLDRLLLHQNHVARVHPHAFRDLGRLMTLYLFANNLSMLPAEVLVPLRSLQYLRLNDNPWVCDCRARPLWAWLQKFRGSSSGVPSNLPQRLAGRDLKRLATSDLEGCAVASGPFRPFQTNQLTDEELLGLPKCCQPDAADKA
# T4: human NgR1 (Homo sapiens, UniProt Q9BZR6)
# T4 sequence (Q9BZR6 27-447): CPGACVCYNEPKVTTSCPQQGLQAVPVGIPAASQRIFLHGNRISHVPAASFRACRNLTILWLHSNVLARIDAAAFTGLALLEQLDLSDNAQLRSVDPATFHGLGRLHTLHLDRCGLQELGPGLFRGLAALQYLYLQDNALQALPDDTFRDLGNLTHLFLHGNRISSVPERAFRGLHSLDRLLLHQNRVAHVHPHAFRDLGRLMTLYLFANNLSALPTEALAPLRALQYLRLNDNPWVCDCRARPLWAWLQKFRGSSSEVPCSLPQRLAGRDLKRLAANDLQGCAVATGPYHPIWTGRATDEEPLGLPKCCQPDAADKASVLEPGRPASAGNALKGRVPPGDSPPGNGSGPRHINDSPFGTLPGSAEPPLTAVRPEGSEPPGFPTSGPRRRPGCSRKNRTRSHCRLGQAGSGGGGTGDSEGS
# T5: NgR3 (Homo sapiens, UniProt Q86UN2)
# T5 sequence (Q86UN2 with tags, fused parts or gaps V54E/V59I/G67T/L68F/P71Q/Y90F/H92A/S94N/V144I/P190Q/T192I/R221H/S234T/E239D/G245V/P256A/Q271R/V283A/S284T/G286E/H289Q/A298V/A308V/T321S/S331P/P332S/P335A/T336S/S338D/P345H/R346P/H349S/INS350SGYK/P352A/N358S/P359H/A368V/G369S/A370S/Q373E/A374L/P375T/P378Q): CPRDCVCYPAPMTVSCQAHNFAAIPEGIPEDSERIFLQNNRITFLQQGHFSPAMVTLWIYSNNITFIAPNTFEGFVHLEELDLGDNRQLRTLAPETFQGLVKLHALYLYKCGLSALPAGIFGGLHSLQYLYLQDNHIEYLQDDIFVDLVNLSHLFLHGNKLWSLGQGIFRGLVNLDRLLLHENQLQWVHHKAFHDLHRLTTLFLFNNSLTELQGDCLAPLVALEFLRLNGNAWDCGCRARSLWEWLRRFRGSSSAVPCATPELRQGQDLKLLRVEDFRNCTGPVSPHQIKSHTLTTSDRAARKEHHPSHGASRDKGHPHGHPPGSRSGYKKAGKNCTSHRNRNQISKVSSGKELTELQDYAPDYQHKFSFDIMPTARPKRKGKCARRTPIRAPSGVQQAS
# Assays:
# [1] = biological target: T1, Nogo66 binding to sNogoR344-Fc (rat Nogo receptor-1 residues 26-344); assay: SPA bead assay: 125I-Nogo66 binding to immobilized sNogoR344-Fc, inhibition by mAb; details: 125I-Nogo66 binding to sNogoR344-Fc
# Protocol: (§1) 0.5 μg of a soluble Nogo receptor-1 fusion protein comprising amino acid residues 26-344 of rat Nogo receptor-1 and the hinge and Fc region of the rat IgG1 molecule (sNogoR344-Fc) produced as described below was immobilized on […] of protein-A- or wheatgerm agglutinin-conjugated SPA beads (Amersham Pharmacia Biotech) for 2 hours at 25° C. SPA beads coupled with Fc-sNogoR-1, anti-Nogo receptor-1 mAb and 1 μl ^125I-Nogo66 (Amersham, 2000 Ci/mmol, 1 nM) in […] of the HEPES-buffered incubation medium (10 mM HEPES, pH 7.4, 0.1% bovine serum albumin, 0.1% ovalbumin, 2 mM MgCl2, 2 mM CaCl2 and protease inhibitors) was added to each sample well. After 16 hours, radioactivity was measured in quadruplicate samples using a TopCount® (Packard). IC50 values were calculated from a curve-fit analysis (FIG. 3) (PRISM, GraphPad Software, NJ). In some experiments, we also used AP-ligand conjugates (e.g. AP-Nogo66) and detected binding by monitoring alkaline phosphatase activity. We also assayed the ability of the mAbs to block binding of the ligands MAG-Fc and AP-OM-gp to Nogo receptor-1.
# [2] = biological target: T2, MAG + sNogoR344-Fc; assay: ELISA: inhibition of MAG binding to sNogoR344-Fc
# Protocol: as §1
# (§2) Monoclonal antibodies 7E11, 5B10, 1H2, 3G5 and 2F7 all inhibited binding of Nogo66, MAG and OM-gp to sNogoR344-Fc. The calculated IC50 for Nogo66 for 7E11 and 1H2 were 400 nM and 60 nM, respectively. The data from ELISAs monitoring mAb-mediated inhibition of binding of the three ligands to Nogo receptor-1 are summarized in Table 6.
# (§3) The percent displacement is shown at 30 nM antibody and the EC50 for certain mAbs determined from curve-fit analysis as described. “-” indicates no detectable activity and “ND” indicates not determined.
# (§4) We also performed ELISA binding assays using the Fab-phage 141)5.
# [3] = biological target: T3, Nogo66 + sNogoR344-Fc; assay: ELISA: inhibition of Nogo66 binding to sNogoR344-Fc
# Protocol: as §1, §2, §3, §4
# [4] = biological target: T4, human NgR1; assay: Antibody binding specificity: human Nogo receptor-1
# [5] = biological target: T5, NgR3; assay: Antibody binding specificity: NgR3
# [6] = biological target: T6, panel of Nogo receptor-1 polypeptides (sNogoR310-Fc, sNogoR344-Fc, p-617, p-618, p-4, p-5) (Rattus norvegicus, UniProt Q99M75); assay: Antibody specificity ELISA with a panel of Nogo receptor-1 polypeptides; type: binding
# T6 construct: made in house
# Excerpt: To determine the specificity of the monoclonal and Fab-phage antibodies produced in Examples 1 and 2, we performed an ELISA using a panel of Nogo receptor-1 polypeptides. The panel consisted of sNogoR310-Fc (a fusion protein comprising amino acids 26-310 of rat Nogo receptor-1 and a rat Fc fragment), sNogoR344-Fc (see supra), polypeptide p-617 (SEQ ID NO: 1), polypeptide p-618 (a 19-amino acid polypeptide from the LRR7 region of rat Nogo receptor-1; FIG. 2; SEQ ID NO: 11) and polypeptides p-4 and p-5 (polypeptides from the LRR5 and LRRCT regions of Nogo receptor-1, respectively). Ovalbumin and BSA were used as controls.
molecule,measurement,setting,value
"7E11: murine monoclonal anti-Nogo receptor-1 antibody, immunogen rat Nogo receptor-1 residues 110-125, IgG1 kappa, ATCC PTA-4587 (antibody, V domains shown, 7E11 heavy chain; 7E11 light chain, murine monoclonal anti-Nogo receptor-1 antibody, immunogen rat Nogo receptor-1 residues 110-125, IgG1 kappa, ATCC PTA-4587) VH: VQLQESGAELVMPGASVKMSCKASGYTFTDYWMHWVKQRPGQGLEWIGAIDPSDSYSSYNQNFKGKATLTVDGSSSTAYMQLSSLTSEDSAVYYCARRITEAGAWFAYWGQGTTVT VL: MKLPVRLLVLMFWIPASSSDVVMTQTPLSLPVSLGDQASISCRSSQSLVHSNGNTYLHWYLQKPGQSPKLLIYKVSNRFSGVPDRFSGSGSGTDFTLKISRVDAEDLGVYFCSQSTHVPFTFGGGTKLEIKRADAAPTVSISHH",IC50,[1],400 nM
same,inhibition of binding of MAG to sNogoR344-Fc,[2],inhibited
same,MAG + sNogoR344-Fc: percent displacement,[2]; 30 nM antibody,30 nM (60%)
same,EC50,[2]; curve-fit analysis,500 nM
same,inhibition of binding of Nogo66 to sNogoR344-Fc,[3],inhibited
same,EC50,[3]; curve-fit analysis,1700 nM
same,binding to human Nogo receptor-1,[4],bound; also recorded: binds well
same,binding to NgR3,[5],does not bind well
same,binding to polypeptide p-617 (SEQ ID NO: 1),[6],specifically bound
